Reference: publication doi:10.1101/2021.09.10.459738
pKd: −log10 of the molar value.

Molecular target: heat-denatured ovalbumin (UniProt P01012)
Experiment: ELISA

Sequence of UniProt P01012 (P01012 whole entry): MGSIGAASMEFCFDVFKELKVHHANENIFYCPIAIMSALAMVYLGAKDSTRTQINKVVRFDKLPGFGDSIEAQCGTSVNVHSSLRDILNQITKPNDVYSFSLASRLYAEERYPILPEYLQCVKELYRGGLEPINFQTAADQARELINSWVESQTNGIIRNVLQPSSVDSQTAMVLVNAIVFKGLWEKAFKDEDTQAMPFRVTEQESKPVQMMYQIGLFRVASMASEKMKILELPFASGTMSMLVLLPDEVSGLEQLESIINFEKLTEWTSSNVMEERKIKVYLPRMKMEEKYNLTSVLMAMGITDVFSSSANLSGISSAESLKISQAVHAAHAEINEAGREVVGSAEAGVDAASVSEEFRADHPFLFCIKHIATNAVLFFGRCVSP

Substance: human IRE1α-LD-Fc fusion protein (from UniProt O75460 19-443)
- pKd: 3.52
